Laboratory results from paper PMC10106861.

What was measured:
[1] = molecular target: GhWRKY41 full length as GhWRKY41-NLuc and GhWRKY41-CLuc, expressed in cotton protoplasts (Gossypium hirsutum); test: split reporter
[2] = molecular target: GhWRKY41-Myc fusion protein (Gossypium hirsutum); test: immunoprecipitation and Western blot

fold luciferase activity (after V. dahliae supernatant) [1] [fold]	fold luciferase activity (after chitin solution) [1] [fold]	fold luciferase activity over the negative control (normal condition) [1] [fold]	stoichiometry N [2]	Substance
23	27	10		GhWRKY41 full length as GhWRKY41-NLuc and GhWRKY41-CLuc, expressed in cotton protoplasts (natural protein)
			2	GhWRKY41-Myc fusion protein (natural protein)
